Assay: soluble on expression in E. coli; label from the status in PepcDB or PDB records

Q: Which “soluble on expression in E. coli” value does the source give for “MCVSSAVCVLSRLSLERFSNFSANFVDNFLLVARFARGETLKNGIVLEISKICPKLYISPVPKLFDCSTDNLLFIYILFASKVRMKEMSTPTGLPALNGDVLSAINDMIGRVIIINTTDKKRYSGVLGAVSQDFDFGMQCVVEITKENENNLLRTESECRDKMVFHYSDIVDFAYVTQEIKKQHAVSKFVTDRQYHGDTPIEGEELQEWNGGEEDGLGGSIEDDVVVAGGQTAARRSNNHNNGTGWSVNDMFAANEKMNVVSTFKEDLTQYTTVEVVGTDEDRARAERLAREIESNSSSKFMANLENDDDERDLDKITRQEDFENGNGRKRNNNSFNQQQQQRRNPNIAPNGQPVNRRAEGLRGDRRNSGSSSANNSRYGAPAAAQQNYSQNQQQQQGQKGYRRQNEENDWQMAKGKGQNQGHDHSFRQQQKQMLDPRPNNNVKPADDKAQSATTATAAAGGSRVTDLKNWGNEFSIATAPKDQAPAVPAGNSGSAWNRGPPSSLVAKGSSNESTPPPTTNGEEAETKKEEAPSTSVDVAAAPVQNVQNDAEKHQEDDNVSVTSENDSVITSKSSSFKFNINAPEFKPRVAPATPTATTPVQNEYHPQQQPHPAMMAPQQGPPAPGMGMVPPHMGGPQNQGQPPMMMWQQTGQQQQGGGGYPQNHQFPIQHVPMQGVPGQMYGPGAATPVTVAQQPNQQHQVPTSAAGGQNHQLRDGEYREKQPLYMPYGPPQMVPVTSQQFYHSQYQGQMQQAAPYQMKMMPQQAPQGAYQQRYQQPQVYMMPPQGQQQQPRYQGPPPPQQQQQQQPQQQQFSGEQSRPQSHPNSQPTTPGPRGELPKMSGAPQNGNMQAESSSNASHSGSTSSQSGQRSGSPPGAVPPPPPPQQQHQQQQHPPHHAPPHVGAPPPQMMQQQQQHIQQYMQVFYPMIMPQQMPMQQNQHPQQSLMGERSDQGFPTSGYFDYRTMPNYQQQQQQQQQQMHRQNSLPQQFQGNQGVNPSGQQSGPPPPPPPSQQGTPRDQQHSQSPP” here?
A: not soluble

Q: Which “soluble on expression in E. coli” value does the source give for “MCYHLIIDSFIDRISRMHTQRGLEVTTGSIEAVDSINYFHEQVLSSGQNAIQILDSAKKHTDNLLIQTYAAAFYLYAQEDVANEQASDYLQSAFRLLTSANEREKLIFEAVTNWSKRDYANAISLLVTLLERYPRDTLALKFMEWLFYCTGQAFNAEYFLKVCDKCAPENQDESHFLAIHSFALELCGQYSKAKEMAEEAITMNLLTPWAHHTLAHVHLLTSDITGGINRLRDLQKTWEDILPLLKGHNTWHLALFYLANRNEEEVKKLYPHISGALPDTVLEQLDTISLLWRMDMAGLPQDRLLNQVVDHLSTHPLEYYTGFTNAHFIYCLVKSGYKNEADESLKRMKFYACSPSSDALWGDVVLPLCQGIYAFADADYKTALMLMEPVIGECAQLGGSDAQIELFFQTYLLVLIHNKQKDKALQFFTEHLKYYNNTPLSDWWFQSANKA” here?
A: not soluble

Q: For “MDAAKVRSEFDEKMMRYALELADKAEALGEIPVGAVLVDDARNIIGEGWNLSIVQSDPTAHAEIIALRNGAKNIQNYRLLNSTLYVTLEPCTMCAGAILHSRIKRLVFGASDYKTGAIGSRFHFFDDYKMNHTLEVTSGVLAEECSQKLSTFFQKRREEKKIEKALLKSLSDKLEHHHHHH”, which “soluble on expression in E. coli” value is on record?
A: not soluble

Q: For “MDADVIVVGAGLAGLVAAHELTSRGRRVALVDQENAANLGGQAFWSFGGLFLVDSPEQRRLGVKDSLDLAWNDWQGSAGFDRTEDEDSWAVRWARAYVEWAAGEKRSWLAGHGITFLPTVGWAERGDLRAGGHGNSVPRFHIAWGTGTGVVEPFVRYAKQAARDGLLTFHHRHRVDHLVVEDGTARGVRGTVLAPDDSPRGVASSRDTAGEFELAAQAVIVTSGGIGADHDIVRRHWPERLGTPPAEMVTGVPAYVDGRMLGISAEAGARLVNRDRMWHYTEGVRNWDPIWPGHGIRILPGPSSMWFDALGRRLPEPYLPGYDTLGTLRHLRTAEGLAEHGHSWFVLTRKIIEKEFALSGSEQNPDITAKDRAGFLRERVLGKGAPGPVGAFLRHGADFVTAPDLEQLVEKMNRLTDKPLLDAAALRRQIEARDLQLANPYAKDAQVQGIRNARRYIGDRLGRVATPHRLLDPAAGPLIGVKLHILTRKTLGGIQTDLDSRALGADGTPVEGLYAAGEVAGFGGGGVHGYNALEGTFLGGCLFSGRAAGRAAARQTALEHHHHHH”, which “soluble on expression in E. coli” value is on record?
A: not soluble

Q: With “MDAIFNNNFEKYKDDPEMTRALMTSKESLEDENWDTYLQWFKENKYEVLEVKEGKNKSTLTVKATFNSFADIPNDDVMGIIFTEVYKASKNKIKSLDEEDDIFDEEFMINVTNKLMDKSKKETKEIKVYMDKVNGKWDLIEDEDNDDDIVNMELISTMTPLLEKFLEITTEFEGFEGF” as the sequence, how does the “soluble on expression in E. coli” value read?
A: not soluble

Q: With “MDAIVMAGGFGQRLGMGEKPCVELLGKPLITYVIDNLRASKNIDRVFVAVSPVTPKTEIMIQERYKGEVQVIRTFGGNYVGDMIHAVETSNTAGPVMIIMSDLPLVNPDLIDSVIEKYREEGKPALSVYVPINVCRGTGTRPDTVFNKDGKLIVPAGVNILDSSQIRKEQEDFNLILDNPRLAINVNTVKDLQRCKDLLQCSN” as the sequence, how does the “soluble on expression in E. coli” value read?
A: soluble

Q: With “MDAPLAEQDLKALFLRHARQLQSYLLRKTRDPHLAADLAQESFLRLAEQRHKEPIEHVDAYLYRTAHNLTIDHYRQERRRRTETQPNDDLAGFVADQPGPEESAVDADALARLREIVAELPPRTREIFRLNRLEGLTHAEVARRLEISDSSVQKHLARTLAHVMQALEDSR” as the sequence, how does the “soluble on expression in E. coli” value read?
A: not soluble

Q: For “MDARIVNALIGSVYETIRDVLGIEPKTGKPSTVSHIEIPHSLVTVIGITGGIEGSLIYSFSSETALKVVSAMMGGMEYNQLDELALSAIGELGNMTAGKLAMKLEHLGKHVDITPPTVVSGRDLKIKSFGVILKLPISVFSEEDFDLHLSVKSGG”, which “soluble on expression in E. coli” value is on record?
A: soluble

Q: Which “soluble on expression in E. coli” value does the source give for “MDAVSKAAIRLLDTIGITGVTKVNTYAGPEQEYFLIDKKFYAQRPDLIMTGRTLLGALPPKGQQLEDHYFGSIPDRVLEFMQEVEEELFLLGIPAKTRHNEVAPHQFEIAPIFEQVNLASDHNLLVMEVMRKVADKKGFALLLFEKPFAGINGSGKHNNWSIGIDGGMNLLDPGDTPESNISFLVFLVAVLKGVLKRSAILRASVASIGNDHRLGANEAPPAVITVFLGDLLEKVLDAIESGKVDLKTEKQILDLGLSHVPVLNKDYTDRNRTSPFAFTGNKFEFRAVGSSQPISVPNMVLNTIMAEALDDLNAEILAKIEGGMAKEDAILAAVRDGIIATKAVRYPGDNYSEDLQRAAAERGLPNMKNTPESVRAWTDKDTVSMFVKYGVLTAEEIESRYNVRIERYVKGIDI” here?
A: not soluble

Q: Which “soluble on expression in E. coli” value does the source give for “MDDIVPDVLDAVPAGTIKVIYGDDLEVKQGNELTPTQVKDQPIVSWSGLEGKSNLLTLLMVDPDAPTRQDPKYREILHWSVVNIPGSNENPSGGHSLADYVGSGPPKDTGLHRYIFLLYRQENKIEETPTISNTTRTGRLNFNARDFAAKHGLGEPIAANYYQAQYDDYVPIRNKTIVG” here?
A: soluble

Q: Which “soluble on expression in E. coli” value does the source give for “MDDPNRIVSASRRPKALIRLLDSQQIEVVLHSRLSVEDVLRLVAEKVDLSFPDSQYFCLGFSDNLNNFHWLDGSVILYDLVASTSNPKGTLTLSHHVRFFVDTIYEVQCASTAKLFFFDIHNQLARHELLVTSEDYFELVAILVSVFVPDCQEHTTAEAISRIMPMSHPPYILLKTDQSEVERRVFEKFRYYRRLPVGTGMISFIKLAEKSESYGYRMYEALNENNDKCILSIGYKGIYIYRRSRHQNLITPYLAYPWRVIDNLYYRDKKFSIEIREPKNSLHSNSSIGTMPSAKIGDGSTSSLPMSSAKPMSTQTSEPQLPDVPEPNESLHNKTIDEFQKDQEKCDRLKARKAELEMRLRQKMQELKDVCVEEGDITGEMPVEINDVVLPGDDFPRLKRRVGTAYSIPDELIKADKADKMSQLETDVELHRRIVAAASRLATDKNTNKSVRKKRQKDLQAARLRLNRLEQGLQQMRHSASKPDISSLTSDSSNSWTASNSSGPMLTMAMTKSCPTTPRGSVPDLRNGLDDEKDEFDENVEDRVSRRAPSAISRHSLSQRYSGVSSSSTSSGSDSMGLGLPPRPTSRKSQQQQTTPFDDQLDNPMICEIPPPPSSAAAHPLLVTNLLSRGKTTGCRVLTEYYPVLKRIRTNY” here?
A: not soluble

Q: Which “soluble on expression in E. coli” value does the source give for “MDDSTLRDRLEQLGLSEKEVDTYLSILSSGEATASEIADDTGVSKRYVYSISESLEDRGFVEVNDHVVPTTIRARPPEEVIDALTDRLEEMSGALDSRYSASAREPQQFDVIKSRVTVIKRLTEYIRNAEREIMLSVPQQYLPEISEELGAAVDRGVLVMLVVSSADNLRSDDASGLASVVRSWDQPMPIMLTVDAQFGLVSPAEMVTRTNSDQRAIAFVQQQLVPVLSGSFLGNYWLMATEVAVTDPAPLPATYHDFRHAVLQATLHLRADHDIHVSADVRAVQADDDTTTIEGTVVETKQGLVEPETNSYPIEHTLVVDIGDRTVSLGGSGSFLEDYETDAVTLSLAE” here?
A: not soluble

Q: With “MDEKTKKAEEMALSLTRAVAGGDEQVAMKCAIWLAEQRVPLSVQLKPEVSPTQDIRLWVSVEDAQMHTVTIWLTVRPDMTVASLKDMVFLDYGFPPVLQQWVIGQRLARDQETLHSHGVRQNGDSAYLYLLSARNTSLNPQELQRERQLRMLEDLGFKDLTLQPRGPLEPGPPKPGVPQEPGRGQPDAVPEPPPVGWQCPGCTFINKPTRPGCEMCCRARPEAYQVPASYQPDEEERARLAGEEEALRQYQQRKQQQQEGNYLQHVQLDQRSLVLNTEPAECPVCYSVLAPGEAVVLRECLHTFCRECLQGTIRNSQEAEVSCPFIDNTYSCSGKLLEREIKALLTPEDYQRFLDLGISIAENRSAFSYHCKTPDCKGWCFFEDDVNEFTCPVCFHVNCLLCKAIHEQMNCKEYQEDLALRAQNDVAARQTTEMLKVMLQQGEAMRCPQCQIVVQKKDGCDWIRCTVCHTEICWVTKGPRWGPGGPGDTSGGCRCRVNGIPCHPSCQNCH” as the sequence, how does the “soluble on expression in E. coli” value read?
A: soluble

Q: For “MDELRELLKAEQQAIKIYKEVLKKAKEGDEQELARLIQEIVKAEKQAVKVYKEAAEKARNPEKRQVIDKILEDEEKHIEWLKAASKQGNAEQFASLVQQILQDEQRHVEEIEKKN”, which “soluble on expression in E. coli” value is on record?
A: soluble

Q: For “MDESVDPVELLLRLLIRHKPHLKPYAYRQDSWQRVLDEYNRQTGSRYRQSRTLKTKFRRLKDLFSADRAQFSPSQLKLMGALLDEAPEHPRPRTKFGNESSSSLSSSSFIKSHPGPDPFQQLSSAEHPNNHSSDDEHSGSQPLPLDSITIGIPPTLHTIPMILSKDNDVGKVIKSPKINKGTNRFSETVLPPQMAAEQSWSDSNMELEICLDYLHNELEVIKKRQEDFECKVLNKLNIIEALLSQMRPPSQGDKI”, which “soluble on expression in E. coli” value is on record?
A: soluble

Q: For “MDFKTVMQELEALGKERTKKIYISNGAHEPVFGVATGAMKPIAKKIKLNQELAEELYATGNYDAMYFAGIIADPKAMSESDFDRWIDGAYFYMLSDYVVAVTLSESNIAQDVADKWIASGDELKMSAGWSCYCWLLGNRKDNAFSESKISDMLEMVKDTIHHSPERTKSAMNNFLNTVAISYVPLHEKAVEIAKEVGIVEVKRDNKKSSLLNASESIQKELDRGRLGFKRKYVRC”, which “soluble on expression in E. coli” value is on record?
A: soluble

Q: Which “soluble on expression in E. coli” value does the source give for “MDFLEKVLDNQVTESKELVRLYDYDLYTLGEVADRMRQNMHQKIVYFNVNRHLNPSNICADACKFCAFSAHRKNPNPYEMSLEEILEKVKNSYNKGIKEVHIVSAHNPNYSYEWYLKVFETIKQEMPNLHLKAMTAAEVHFLSVKFNKPFELVLEDMLKAGVDSMPGGGAEIFDEEIRRKICNGKVGSSRWLEIHAYWHKLGKMSNATMLFGHIENKIHRIDHMLRIKKIQSPKNQVENKEGGFNAFIPLLYQKENNYLNVEKSPSAIEILKTIAISRILLNNIPHIKAYWATLGLNLALVAQEFGANDLDGTIEIESIQSAAGAKSRHGLEKEDLIFKIKDAGFVAVERDSLYNFIQKF” here?
A: not soluble

Q: For “MDFLQGDRGDYKSALGSLQQVGYGSVIAKIRLAFNATGSVLRKRVLKEEQIEETVAKELEERRRTWDVNNGQFDKFSQWYIEYRKNLWHKDDYLPWLLYENEISCLKLTFDVCERPPRRINYGGRNRYTCEN”, which “soluble on expression in E. coli” value is on record?
A: not soluble

Source: the DeepSol protein solubility set
